B1: TPR 5TU (parent)
chain: GGAUCUUCUCGAUCUAACAAAAAAGACAAAUCUGCCACAAAGCUUGAGAGCAUCUUCGGAUGCAGAGGCGGCAGCCUUCGGUGGCGCGAUAGCGCCAACGUUCUCAACUAUGACACGCAAAACGCGUGCUCCGUUGAAUGGAGUUUAUCAUG

Fewer inactive variants are shown than the library holds.

The series covers variants of B1. Nature of the series: polymerase ribozyme fitness, log enrichment relative to wild type (log ratio); higher = more active; in vitro selection for triplet polymerase activity. An outline of the steps:
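Both subunits of a heterodimeric triplet polymerase ribozyme were given their own mutant library, built by PCR and transcribed. Each library was annealed with a biotinylated primer, the partner subunit and triplets, incubated frozen at −7 °C, and its extended constructs gel-excised, captured on streptavidin beads and amplified by RT-PCR, all in one round done in triplicate. Fitness is the logarithm of genotype enrichment relative to wild-type enrichment, with replicates averaged by inverse-variance weighting. That logarithm is base 2, and Illumina-sequenced genotypes needed ≥10 input reads and ≥1 read per output.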
As to G59C C95G C103U G126A, the “polymerase ribozyme fitness (log ratio)” value is -2.28.

Regarding G58U C105U A106G C149U, the “polymerase ribozyme fitness (log ratio)” value turned out to be 0.147.

With G58C C95U, the “polymerase ribozyme fitness (log ratio)” value was -0.651.

Take G58C C76A G83U: the “polymerase ribozyme fitness (log ratio)” value was -2.66.

G58A U90A C125G: the “polymerase ribozyme fitness (log ratio)” value is at most -4.2.

For G59U A107C A121U, the “polymerase ribozyme fitness (log ratio)” value was -3.86.

A60C C99G U101G: the “polymerase ribozyme fitness (log ratio)” value is at most -4.2.

For the variant G58U A60C C105G U148G, the “polymerase ribozyme fitness (log ratio)” value is at most -4.2.

For G59U A60U, the “polymerase ribozyme fitness (log ratio)” value is -0.703.

For G59C C76A C87G, the “polymerase ribozyme fitness (log ratio)” value was at most -4.2.

G59C G67A U78G C79A C87A G143A: the “polymerase ribozyme fitness (log ratio)” value was at most -4.2.

In the case of G59U C85G A119U G128A, the “polymerase ribozyme fitness (log ratio)” value is -4.19.

Regarding G59A C85A A115G C123U, the “polymerase ribozyme fitness (log ratio)” value was -2.65.

Take G59A G94U C95A U104C: the “polymerase ribozyme fitness (log ratio)” value was -2.63.

Turning to G59C A60G C85A, the “polymerase ribozyme fitness (log ratio)” value is -1.88.

In the case of G59C C87U U102G C132U U145G, the “polymerase ribozyme fitness (log ratio)” value was at most -4.2.

As to G58C A73G U101C C125G, the “polymerase ribozyme fitness (log ratio)” value is -0.932.

Regarding G58C A73G C85G, the “polymerase ribozyme fitness (log ratio)” value was -2.21.

As to G59C A119U C149U, the “polymerase ribozyme fitness (log ratio)” value is -0.775.

For G58C C96U A150G, the “polymerase ribozyme fitness (log ratio)” value was -0.919.

As for G59C C103U, the “polymerase ribozyme fitness (log ratio)” value was 0.229.

Turning to G59C C93G A97U U127C A137G, the “polymerase ribozyme fitness (log ratio)” value was at most -4.2.

Turning to G58U G86A C87A, the “polymerase ribozyme fitness (log ratio)” value is at most -4.2.

Consider G59C A138G, for which the “polymerase ribozyme fitness (log ratio)” value is -3.04.

With G59C C87A U101C G141U A147U, the “polymerase ribozyme fitness (log ratio)” value was at most -4.2.

For the variant G59U A107U U127A, the “polymerase ribozyme fitness (log ratio)” value was at most -4.2.

For the variant A60C C85A G124C, the “polymerase ribozyme fitness (log ratio)” value was -2.54.

Take G59A U61C: the “polymerase ribozyme fitness (log ratio)” value was -0.735.

Take G58C C96U: the “polymerase ribozyme fitness (log ratio)” value is -1.02.

Consider G58C A60G G67A C69A G92U G112A G143C, for which the “polymerase ribozyme fitness (log ratio)” value was at most -4.2.

On to G59U C95U, for which the “polymerase ribozyme fitness (log ratio)” value was -2.6.

Consider G59A C85G C99U A120G, for which the “polymerase ribozyme fitness (log ratio)” value was at most -4.2.

In the case of G58U G86A, the “polymerase ribozyme fitness (log ratio)” value was -1.55.

For the variant G59C A60U G68A C75A C108A, the “polymerase ribozyme fitness (log ratio)” value is -4.15.

Regarding A60C G71C C93G G140A U151C, the “polymerase ribozyme fitness (log ratio)” value was at most -4.2.

As for G58C G143A, the “polymerase ribozyme fitness (log ratio)” value is -0.724.

G58C G126U U145G: the “polymerase ribozyme fitness (log ratio)” value is -3.82.

Regarding G58C A66C G67A A89C U111C C116A C129G U148A, the “polymerase ribozyme fitness (log ratio)” value was at most -4.2.

Regarding G59A C76G G80C C116G C118G, the “polymerase ribozyme fitness (log ratio)” value was at most -4.2.

Consider G59C G65C C76G U145G C149A, for which the “polymerase ribozyme fitness (log ratio)” value is at most -4.2.

For the variant G58C A60C G94A G100C C103A, the “polymerase ribozyme fitness (log ratio)” value is at most -4.2.

G59A C76G: the “polymerase ribozyme fitness (log ratio)” value is at most -4.2.

As to G59U G67A G92U, the “polymerase ribozyme fitness (log ratio)” value is -3.83.

Take G58A U61A C87A G117A: the “polymerase ribozyme fitness (log ratio)” value was at most -4.2.

In the case of G58C C85A, the “polymerase ribozyme fitness (log ratio)” value is -3.71.

On to G59U G94A C118U A150G, for which the “polymerase ribozyme fitness (log ratio)” value is -1.69.

For the variant G59A A60C G126A, the “polymerase ribozyme fitness (log ratio)” value was -0.62.

For G59U C96U A121C G126A U146G, the “polymerase ribozyme fitness (log ratio)” value was -2.76.

Take G59A G83U G84A: the “polymerase ribozyme fitness (log ratio)” value is -1.23.

Consider G59A C85U C149G, for which the “polymerase ribozyme fitness (log ratio)” value was -3.59.

With G58U A60G A137C, the “polymerase ribozyme fitness (log ratio)” value is at most -4.2.

On to G58C G68A, for which the “polymerase ribozyme fitness (log ratio)” value was -3.97.

In the case of G59A C103A A107U A110U U111A C118A A138G, the “polymerase ribozyme fitness (log ratio)” value is at most -4.2.

Regarding G58A G88C G92A C96A, the “polymerase ribozyme fitness (log ratio)” value was at most -4.2.

Take G59U A106G C114U: the “polymerase ribozyme fitness (log ratio)” value was -1.65.

As to G58C G94A, the “polymerase ribozyme fitness (log ratio)” value is -0.64.

Consider G59C G68C C118G, for which the “polymerase ribozyme fitness (log ratio)” value was -4.15.

For G59C A60U, the “polymerase ribozyme fitness (log ratio)” value amounted to 0.153.

As to G59A C75U C85U U144A, the “polymerase ribozyme fitness (log ratio)” value was -1.61.

Take G58C C87G: the “polymerase ribozyme fitness (log ratio)” value was at most -4.2.

Regarding G58U G94U G140U, the “polymerase ribozyme fitness (log ratio)” value is -3.9.

For G58U C76A, the “polymerase ribozyme fitness (log ratio)” value came to 0.0806.

Take G58C A97U: the “polymerase ribozyme fitness (log ratio)” value is -0.712.

As to G58A U61G, the “polymerase ribozyme fitness (log ratio)” value was -1.49.

With A60C A120U A137C G140U, the “polymerase ribozyme fitness (log ratio)” value was at most -4.2.

Take G58A U101G C132G G133C A142C: the “polymerase ribozyme fitness (log ratio)” value was -3.72.

With G59U A60G C93U, the “polymerase ribozyme fitness (log ratio)” value was -3.87.

As to G58C A150U, the “polymerase ribozyme fitness (log ratio)” value turned out to be 1.46.

As to G59A A60C U61A G81A C103G, the “polymerase ribozyme fitness (log ratio)” value was at most -4.2.

As to G59A C95U C103G, the “polymerase ribozyme fitness (log ratio)” value is -2.47.

Consider G59C U61A A64C, for which the “polymerase ribozyme fitness (log ratio)” value was at most -4.2.

Turning to G59A A64U C85A G92A U144C, the “polymerase ribozyme fitness (log ratio)” value was at most -4.2.

With G59A G133U G136C U148C, the “polymerase ribozyme fitness (log ratio)” value is at most -4.2.

As for G59U C93A, the “polymerase ribozyme fitness (log ratio)” value is -3.58.

Take G59C G124A U151C: the “polymerase ribozyme fitness (log ratio)” value was -3.78.

Regarding G58C A89U C95A G126U, the “polymerase ribozyme fitness (log ratio)” value is -0.892.

With A60C C93A A98U A122C, the “polymerase ribozyme fitness (log ratio)” value was -2.61.

As to G59C U109G, the “polymerase ribozyme fitness (log ratio)” value is -0.84.

G59C U77A C96G C105U G140A: the “polymerase ribozyme fitness (log ratio)” value is at most -4.2.

As for G59C G94C, the “polymerase ribozyme fitness (log ratio)” value is -0.253.

As to A60C A73U, the “polymerase ribozyme fitness (log ratio)” value is -3.54.

G58C G83A C93U: the “polymerase ribozyme fitness (log ratio)” value was -2.03.

For G59C A60C C87G, the “polymerase ribozyme fitness (log ratio)” value is at most -4.2.

For G59C U127A, the “polymerase ribozyme fitness (log ratio)” value was -3.77.

(Values after the RNAGym collection of RNA variant scans (doi:10.1073/pnas.2313332121).)
